Laboratory results taken from IntAct's records for PubMed 29039417.

B1: Protein PTHB1 (Homo sapiens), Q3SYG4 (parent)
chain: MSLFKARDWWSTILGDKEEFDQGCLCLANVDNSGNGQDKIIVGSFMGYLRIFSPHPAKTGDGAQAEDLLLEVDLRDPVLQVEVGKFVSGTEMLHLAVLHSRKLCVYSVSGTLGNVEHGNQCQMKLMYEHNLQRTACNMTYGSFGGVKGRDLICIQSMDGMLMVFEQESYAFGRFLPGFLLPGPLAYSSRTDSFLTVSSCQQVESYKYQVLAFATDADKRQETEQQKLGSGKRLVVDWTLNIGEQALDICIVSFNQSASSVFVLGERNFFCLKDNGQIRFMKKLDWSPSCFLPYCSVSEGTINTLIGNHNNMLHIYQDVTLKWATQLPHIPVAVRVGCLHDLKGVIVTLSDDGHLQCSYLGTDPSLFQAPNVQSRELNYDELDVEMKELQKIIKDVNKSQGVWPMTEREDDLNVSVVVSPNFDSVSQATDVEVGTDLVPSVTVKVTLQNRVILQKAKLSVYVQPPLELTCDQFTFEFMTPDLTRTVSFSVYLKRSYTPSELEGNAVVSYSRPTDRNPDGIPRVIQCKFRLPLKLICLPGQPSKTASHKITIDTNKSPVSLLSLFPGFASQSDDDQVNVMGFHFLGGARITVLASKTSQRYRIQSEQFEDLWLITNELILRLQEYFEKQGVKDFACSFSGSIPLQEYFELIDHHFELRINGEKLEELLSERAVQFRAIQRRLLARFKDKTPAPLQHLDTLLDGTYKQVIALADAVEENQGNLFQSFTRLKSATHLVILLIALWQKLSADQVAILEAAFLPLQEDTQELGWEETVDAAISHLLKTCLSKSSKEQALNLNSQLNIPKDTSQLKKHITLLCDRLSKGGRLCLSTDAAAPQTMVMPGGCTTIPESDLEERSVEQDSTELFTNHRHLTAETPRPEVSPLQGVSE
partner: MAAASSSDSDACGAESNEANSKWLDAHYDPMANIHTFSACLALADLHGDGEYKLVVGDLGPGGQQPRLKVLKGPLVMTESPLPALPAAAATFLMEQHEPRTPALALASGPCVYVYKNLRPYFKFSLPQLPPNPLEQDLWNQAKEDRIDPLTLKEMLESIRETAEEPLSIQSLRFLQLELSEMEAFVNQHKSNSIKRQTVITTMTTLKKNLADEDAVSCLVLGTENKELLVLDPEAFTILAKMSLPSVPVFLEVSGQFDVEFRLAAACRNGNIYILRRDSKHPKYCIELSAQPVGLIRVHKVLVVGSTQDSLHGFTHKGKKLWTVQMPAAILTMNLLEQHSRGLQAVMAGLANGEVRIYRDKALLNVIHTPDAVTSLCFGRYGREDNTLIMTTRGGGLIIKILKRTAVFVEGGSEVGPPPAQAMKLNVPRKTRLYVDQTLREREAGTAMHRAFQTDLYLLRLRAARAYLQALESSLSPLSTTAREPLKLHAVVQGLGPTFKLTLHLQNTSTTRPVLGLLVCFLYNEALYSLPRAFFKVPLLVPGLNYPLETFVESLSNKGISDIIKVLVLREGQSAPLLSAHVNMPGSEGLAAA

Variants of: B1
Details: with bbs1_human BBS1, Q8NFJ9

effect of a mutation on the interaction | Variant
with no effect | C634A
disrupting interaction strength | L616F
with no effect | I451K
disrupting interaction strength | R521T
with no effect | N448A
with no effect | K809A
with no effect | E668A
with no effect | K786E
with no effect | V713E
with no effect | I846A
with no effect | T702E
with no effect | Y490K
with no effect | T874K
disrupting interaction strength | S723A
with no effect | H778K
with no effect | T829E
disrupting interaction strength | Q742L
with no effect | R674E
with no effect | Q539K
with no effect | T512K
with no effect | S787K
with no effect | V489A
with no effect | V489E

effect of a mutation on the interaction | Variant
disrupting interaction strength | L618F
with no effect | L736K
with no effect | F582K
with no effect | R824E
with no effect | P464K
with no effect | Q883A
disrupting interaction strength | E622K
with no effect | K704A
with no effect | S545K
with no effect | C783E
disrupting interaction strength | G565S
with no effect | G565A
disrupting interaction strength | A670V
with no effect | H651A
with no effect | R854K
with no effect | F580K
with no effect | Y703E
with no effect | A427E
with no effect | A427K
with no effect | W610A
with no effect | W610K
with no effect | D422K
with no effect | D631A

effect of a mutation on the interaction | Variant
with no effect | T725K
with no effect | D480K
with no effect | V590A
with no effect | V590K
with no effect | S880K
with no effect | Q602E
with no effect | D435K
with no effect | D435A
with no effect | R510A
with no effect | E765A
with no effect | A586K
with no effect | A730E
with no effect | P520A
with no effect | S820A
with no effect | D762A
with no effect | L666K
with no effect | A544E
with no effect | I801K
with no effect | A712E
with no effect | Q705E
with no effect | R868E
with no effect | D513A
with no effect | G638E

effect of a mutation on the interaction | Variant
with no effect | D608A
with no effect | Q524K
with no effect | T861E
with no effect | T861A
with no effect | S777A
with no effect | L467A
with no effect | D804K
with no effect | S596E
with no effect | G538A
with no effect | H867E
with no effect | H867K
with no effect | Q569E
with no effect | Y645A
with no effect | Y623E
with no effect | Y623A
with no effect | S558K
with no effect | P497K
with no effect | I812A
with no effect | L457A
with no effect | S541K
with no effect | D830E
